Measurements as given in patent US20240398911A1.

Tests used:
Experiment in all cases: BLI, sACE22-IgG1 immobilized, RBD-8h analyte
[1] = target: 8his-tagged RBD of the S protein of bat coronavirus isolate Rs4231 (bat coronavirus Rs4231)
[2] = target: 8his-tagged RBD of the S protein of bat coronavirus isolate Rs4084 (bat coronavirus Rs4084)
[3] = target: 8his-tagged RBD of the S protein of bat coronavirus isolate RsSHC014 (bat coronavirus RsSHC014)
[4] = target: 8his-tagged RBD of the S protein of bat coronavirus isolate LYRa11 (bat coronavirus LYRa11)
[5] = target: 8his-tagged RBD of the S protein of bat coronavirus isolate Rs7327 (bat coronavirus Rs7327)

sACE22.v2.4 fused to human IgG1 Fc (Fc fusion)
Kd [1]: 3.5 nM | koff [1]: 0.0016 s⁻¹ | kon [1]: 450000 M⁻¹ s⁻¹ | Kd [2]: 3.1 nM | koff [2]: 0.0015 s⁻¹ | kon [2]: 480000 M⁻¹ s⁻¹ | Kd [3]: 1.3 nM | koff [3]: 0.002 s⁻¹ | kon [3]: 1.6e+06 M⁻¹ s⁻¹ | Kd [4]: 1.8 nM | koff [4]: 0.0025 s⁻¹ | kon [4]: 1.4e+06 M⁻¹ s⁻¹ | Kd [5]: 1.9 nM | koff [5]: 0.0018 s⁻¹ | kon [5]: 980000 M⁻¹ s⁻¹
